Key:
[1] = target: RSV F protein of subtype A (strain A2) on recombinant mKate-RSV (respiratory syncytial virus subtype A …, UniProt P03420 26-574); experiment: cell-based or functional assay
[2] = target: RSV F protein of subtype B (18537) on recombinant mKate-RSV (respiratory syncytial virus subtype B …, UniProt P13843 26-574); experiment: cell-based or functional assay
[3] = target: T1, RSV F subtype B, furin-cleaved ectodomain stabilized in the postfusion conformation (F ΔFP) (Respiratory syncytial virus subtype B); experiment: BLI, IgG on AHQ sensor, 100 nM antigen
T1 construct: extracellular domain; Trimeric soluble antigen; also called Postfusion subtype B

[4] = target: T2, RSV F subtype B, furin-cleaved ectodomain stabilized in the prefusion conformation (DS-Cav1) (Respiratory syncytial virus subtype B); experiment: BLI, IgG on AHQ sensor, 100 nM antigen
T2 construct: extracellular domain; Trimeric soluble antigen; also called Prefusion subtype B

[5] = target: RSV F protein of subtype A (strain A2) on recombinant mKate-RSV virus (Respiratory syncytial virus subtype A …, UniProt P03420 26-574); experiment: cell-based or functional assay
[6] = target: RSV F protein of subtype B (18537) on recombinant mKate-RSV virus (Respiratory syncytial virus subtype B …, UniProt P13843 26-574); experiment: cell-based or functional assay

Binder	Neut IC50 subtype A [1]	Neut IC50 subtype B [2]	Kd [3]	Kd [4]	Neut IC50 (µg/ml) subtype A [5]	Neut IC50 (µg/ml) subtype B [6]
ADI-19017 (antibody, V domains shown) VH: QVQLVQSGAEVKKPGASVRVTCKASGYTFTDYFMNWVRQAPGGGLEWMGWINPLSGVTKYAQQFQGSVTMTTDTSITTGYMELRSLRVDDTAVYYCASQSSPYTPGAMGVWGQGTTVTVSS VL: SYELIQLPSVSVSPGQTARITCSGDALPKQYAYWYQQKPGQAPVLVIYKDSERPSGIPERFSGSSSGTTVTLTISGVQAEDEADYYCQSADSSGTYPVVFGGGTKLTVL	1.56 µg/mL	0.795 µg/mL				
ADI-19011 (antibody, V domains shown) VH: EVQLVESGGGVVQPGGSLRLSCAGSGFAFGSFAMHWVRQAPGKGLEWVAVISFDGKNTKYADSVKGRFTTSRDNSRNTLYLQMDSLRGDDTAIYYCATIRGIVAGLCDNWGQGTLVTVSS VL: QPVLTQSSSDSASLGASVKLTCTLSSGHRNYIIAWHQQQPGKAPRFLMKVEGSGSFTMGSGVPDRFSGSSSGADRYLTISNLQSEDEADYYCEAWDFNTGGVFGGGTQLTVL	> 10 µg/mL	6.24 µg/mL				
ADI-19008 (antibody, V domains shown) VH: EVQLVESGGGVVQPGRSLRLSCVASGFSFSAYGMHWVRQVPTKGLEWVAVISYDGRDIYYTDSVKGRFTISRDNSKNMLYLQMNSLRPEDRAVYYCARDPSLGYNNHYFDYWGQGTLVTVSS VL: EIVLTQSPATLSLSPGETATLSCRASQSVTGNLAWYQQKPGQAPRLLIYAASNRATGIPARFSGSGSGTDFTLTISSLEPEDFAVYFCQQRSNWPPMYSFGQGTKLEIK	8.29 µg/mL	> 10 µg/mL				
ADI-18897 (antibody, V domains shown, full-length IgG from yeast) VH: EVQLVESGGGLVQPGGSLRLSCAASGFTIGTYWMSWVRQAPGKGLEWVANIKPDGSEQYYGDSVKGRFTISRDNAKNSLYLQMHSLRAEDAAVFYCARDTPDVLRHLEWPPVGAFDIWGQGTTVTVSS VL: EIVMTQSPDSLAVSLGERATINCKSSQSLFYSSTNQHYLAWYQQKPGQPPELLIYWASIRESGVPDRFSGSGSGTDFTLTISSLQAADVAVYYCQQYYSSPQTFGQGTKVEIK			0.185 nM	1.53 nM	0.288 µg/mL	0.762 µg/mL
ADI-18973 (antibody, V domains shown, full-length IgG from yeast) VH: QVQLVQSGPALVKPTQTLTLTCTFGGFSLSRHGMRVTWIRQAPGKALEWLGHIDWDDDKFYRTSLKTRLTISKDPSNNEVVLKMTNMDHVDTATYYCALMRPFWSRDDYYYSIAVWGKGTTVTVSS VL: DIVLTQSPGTLSLSPGDRATLSCRASQSVGSGYVTWYQQKPGQAPRLLIYGASNRAEGIPDRFSGSGSGTDFTLTISGLESEDFVIYYCQLYHRSPGSASQTVWTFGQGTKVEIK			0.394 nM	2.63 nM	9.61 µg/mL	6.27 µg/mL
ADI-18951 (antibody, V domains shown, full-length IgG from yeast) VH: QVQLVQSGGGLVQPGGSLRLSCAASGFAFSDYTMSWVRQAPGKGLEWVSSVSGTGGTSYYADSVNGRFAISRENSKNTLFLQMDSLRAEDTATYYCAKDGLRDVSRVYYIDVWGKGTTVTVSS VL: QPVLTQPASVSGSPGQSITISCTGTSRDIGSHDSVSWYQQKPGKAPKLIIYAVRNRPSGLSNRFSGSKSGNTASLTISGLQTEDEGDYYCSSYRNGNALGVFGTGTKVTVL			1.13 nM	5.35 nM	3.4 µg/mL	> 10 µg/mL
ADI-18952 (antibody, V domains shown, full-length IgG from yeast) VH: QVQLVESGGGLVQPGGSLRLSCAASGFAFSNYAMSWVRQAPGKGLEWVSSVSGTGGTTYYADSVNGRFAISRENSRNTLYLQMDSLRVEDTATYYCAKDGLRDLSRVYYIDVWGKGATVTVSS VL: QSVLTQPASVSGSPGQSITISCTGTSRDIGSHDYVSWYQQHPGKAPKLIIYGVNNRPSGLSNRFSGSKSGNTASLTISGLQTEDEGDYYCSSYRNGNTLGVFGTGTKLTVL			0.633 nM	1.01 nM	1.59 µg/mL	2.75 µg/mL
ADI-18885 (antibody, V domains shown, full-length IgG from yeast; also called Antibody Number 241; Ab # 241) VH: EVQLQESGPGLVKPLQTLSVTCSVSGGSISSGDNYWSWIRQRPGKGLEWIGYIYYSGTTYYNPSLKSRVTISADRSKNQFSLKMNSLSAADTAVYYCARDGGYDHIWGTHRYFALWGQGTLVTVSS VL: ETTLTQSPGTLSLSPGERATLSCRASQSVNSDYLAWYQQKLGQAPRLLIYGVSNRATGIPDRFTGSGSGTDFTLTISRLEPEDFAVYHCQQYGTSPWTFGQGTKVEIK			0.307 nM	3.89 nM	0.376 µg/mL	8.63 µg/mL
ADI-18887 (antibody, V domains shown, full-length IgG from yeast; also called Antibody Number 242; Ab # 242) VH: QVQLVQSGAEVKRPGSSVKVSCKASGGTFSSYALSWVRQAPGQGLEWIGGIIPMHRVTNYAQKFRGRVTISADTSTSTAYLEVNSLRVEDTAMYYCARVFFGTCGGASCFPSDLWGQGTLVTVSS VL: EIVLTQSPSFVSASVGDGVTITCRASQAISSYLAWYQQKPGQAPKLLIYAASTLQGGVPSRFSGSGSGTHFTLTISSLQPEDFATYYCQQLHSDFQTFGPGTKVEIK			0.549 nM	12.2 nM	1.11 µg/mL	> 10 µg/mL
ADI-18976 (antibody, V domains shown, full-length IgG from yeast) VH: EVQLVETGPGLVKPSETLSLTCTVSGDSISGYYWSWIRQSPGKGLEWIGYIYYRGSTDYNPSLKSRVTISVDTSKNQFSLKLSSVTAADTAVYYCARDNKHHDSGNYYAYFDHWGQGTLVTVSS VL: DIVMTQSPSSLSASVGDRVTITCRASQNINTFLNWYQHKPGKAPKLLIYGASRLQSGVPSRFTGSGSGTDFTLTISSLQPEDFATYSCQQSYTTRLTFGGGTKVEIK			0.209 nM	1.24 nM	6.29 µg/mL	10.6 µg/mL
ADI-19010 (antibody, V domains shown) VH: EVQLVESGGGLVKPGGSLRLSCAASGFTFSSYSMNWVRQAPGKGLEWVSSISSSSSYIYYADSVKGRFTISRDNAKNSLYLQMNSLRAEDTAVYYCARDVQYSGYDSGYYFDYWGQGTLVTVSS VL: QPVLTQPPSVSGAPGQRVTISCTGSSSNIGAGYDVHWYQQLPGTAPKLLIYGNSNRPSGVPDRFSGSKSGTSASLAITGLQAEDEADYYCQSYDSSLSALYVFGTGTKVTVL	> 10 µg/mL	0.65 µg/mL				
ADI-19016 (antibody, V domains shown) VH: QVQLVESGGGLVKPGGSLRLSCVASGFTFSSYAMNWVRQAPGKGLDWVSSISAGSNFIDDADSVKGRFTISRDNARNSLFLQMNSLRAEDTAVYYCARIGYSSAHHYQYYMDVWGTGTTVTVSS VL: QSVLTQPPSVSGAPGQRVTISCTGSSSNIGAGYDVHWYQDLPGTAPKLLIYGNTNRPSGVPDRFSGSKSGASASLVITGLQAEDEADYYCQSYDKSLSGGYVFGTGTKVTVL	0.052 µg/mL	0.092 µg/mL				
ADI-18970 (antibody, V domains shown, full-length IgG from yeast; also called Antibody Number 318; Ab # 318) VH: QVQLQESGPRLVKPSQTLSLTCTVSGGSISSGDYYWSWIRQPPGKGLEWIGYIYYSGSTHYNPSLKSRVSMSVDTAKNQFSLKLTSVTAADTAVYYCARDIGYGDHGTGSYYYGIEDWGQGTTVTVSS VL: DIVMTQTPATLSLSPGDRATLSCRASQNIMSYLAWYQHKPGQPPRLLIYDASYRAAGIPARFSGSGSGTDFTLTISSLEPEDFAVYYCQQRTNWITFGQGTRLEIK			0.412 nM	0.445 nM	> 10 µg/mL	0.333 µg/mL
ADI-18888 (antibody, V domains shown, full-length IgG from yeast; also called Antibody Number 243; Ab # 243) VH: QVQLVESGGGVVQPGRSLRLSCVASGFSFSMHGMHWVRQAPGKGLEWVTAIWYDGSNKYYADSVKGRFTISRDNSRNTLYLQMNSLRAEDTAVYYCARDHASTPYYMDVWGKGTTVTVSS VL: ETTLTQSPGTLSLSPGESATLSCRTSQRISSTYLAWYRQKPGQAPRLLMYGASSRATGIPDRFSGSGSGTDFTLTISSLEPEDFALYYCQQYGSFPWTFGQGTKLEIK			1.16 nM		> 10 µg/mL	> 10 µg/mL
ADI-18906 (antibody, V domains shown, full-length IgG from yeast) VH: EVQLVESGGGVVQPGRSLRLSCVASGFSFSMHGMHWVRQAPGKGLEWVTAIWYDGSNKYYADSVKGRFTISRDNSRNTLYLQMNSLRAEDTAVYYCARDHASTPYYMDVWGKGTTVTVSS VL: ETTLTQSPGTLSLSPGESATLSCRTSQRISSTYLAWYRQKPGQAPRLLMYGASSRATGIPDRFSGSGSGTDFTLTISSLEPEDFALYYCQQYGSFPWTFGQGTKVEIK			1.1 nM		> 10 µg/mL	> 10 µg/mL
ADI-18950 (antibody, V domains shown, full-length IgG from yeast) VH: EVQLVESGPRLVRPSETLSLTCTVSGGFIKTSSYYWGWIRQPPGKGLEWIGSIYYAGTTYYNPSLQSRVTMSVDTSNNQFSLKLNSVTAADTAVYYCATAWTFDHWGQGTLVTVSS VL: EIVLTQSPATLSLSPGERATLSCRASQSLSNYLAWYQQKPGQAPRLLIYDASNRATGIPARFSGSGSGTDFTLTISSLEPEDFAVYYCQLRGHWPPTITFGQGTRLEIK			0.385 nM	4.18 nM	> 10 µg/mL	> 10 µg/mL
ADI-19009 (antibody, V domains shown) VH: QVQLVQSGAEVKRPGSSVKVSCKASGGTFRGYHISWVRQAPGQGLEWMGGIIHLFGTVSYAPKFQGRVTITADASTGTAHMELSSLTSDDTAIYYCARDAYEVWTGSYLPPFDYWGQGTLVTVSS VL: DIVMTQTPGTLSLSPGERVTLSCRASQTVTSSYLAWYQQKPGQAPRLLIYGAFTRATGIPDRFSGSGSGTDFTLTISRLEPEDFAVYYCQQYGSSFLTFGGGTKLEIK	0.062 µg/mL	0.066 µg/mL				
